According to publication PMC11643329, “DNA sequence-induced solid phase transition as a solution to the genome folding paradox” (Research Square, 2024):

B1: Ldb1 Lim interaction domain (Ldb1-LID), Sumo-Ldb1 320-375 (domain or fragment, UniProt P70662 320-375, looked up)
chain: KKKSPASTFALSSQVPDVMVVGEPTLMGGEFGDEDERLITRLENTQFDAANGIDDE
notes: Construct order as printed: 6x His - Sumo - Ldb1 320-375 - stop codon in pET28; also called truncated Ldb1 protein; Sumo-Ldb1-LID domain; source: E. coli BL21, purified (HisTrap, Superdex 75 size exclusion); not shown: Sumo, N-terminal, kept
B2: truncated Sumo-Lhx2 (Lhx2 1-350, lacks the C-terminal intrinsically disordered region) (domain or fragment, UniProt Q9Z0S2 1-350, looked up)
chain: MLFHSLSGPEVHGVIDEMDRRAKSEAPAISSAIDRGDTETTMPSISSDRAALCAGCGGKISDRYYLLAVDKQWHMRCLKCCECKLNLESELTCFSKDGSIYCKEDYYRRFSVQRCARCHLGISASEMVMRARDLVYHLNCFTCTTCNKMLTTGDHFGMKDSLVYCRLHFEALLQGEYPAHFNHADVAAAAAAAAAAKSAGLGSAGANPLGLPYYNGVGTVQKGRPRKRKSPGPGADLAAYNAALSCNENDAEHLDRDQPYPSSQKTKRMRTSFKHHQLRTMKSYFAINHNPDAKDLKQLAQKTGLTKRVLQVWFQNARAKFRRNLLRQENTGVDKTSDATLQTGTPSGPA
notes: Lhx2, LIM-homeodomain transcription factor, residues 1-350 followed by a stop codon; Construct order as printed: 6xHis - Sumo - strep II - Lhx2 in pET28b; also called truncated Lhx2; source: E. coli BL21, purified (HisTrap, HiTrap Heparin, dialysis); not shown: Sumo, N-terminal, kept

Legend:
[1] = biological target: B2; experiment: native gel or EMSA; purified proteins mixed with 2000 fmol ATTO-488 labelled composite motif DNA probe; Ldb1 added to DNA-bound Lhx2 and/or Ebf1; 10 mM HEPES, 150 mM NaCl, 5% glycerol, 0.5% NP-40, 1 mg/mL BSA, 0.1 mg/mL poly dI-dC; 30 minutes at 4C; 6% native gel; conditions: both partners purified
[2] = biological target: T1, full length Halo-Ldb1 (Ldb1 1-411) (UniProt P70662 1-411, Halo-tag ligand Coumarin dye on the Halo tag (incubated at 1:10 molar equivalent)); experiment: as above; conditions: both partners purified
T1 construct: Construct order as printed: 6x His - Halo tag - Ldb1 1-411 - stop codon in pET-duet; The EMSA legend says only 'full-length Ldb1'; This is the only full-length Ldb1 construct that the methods describe; also called full length Ldb1; FL Halo-Ldb1; source: E. coli BL21, purified (HisTrap, dialysis); not shown: Halo tag, N-terminal, kept
T1 sequence (looked up): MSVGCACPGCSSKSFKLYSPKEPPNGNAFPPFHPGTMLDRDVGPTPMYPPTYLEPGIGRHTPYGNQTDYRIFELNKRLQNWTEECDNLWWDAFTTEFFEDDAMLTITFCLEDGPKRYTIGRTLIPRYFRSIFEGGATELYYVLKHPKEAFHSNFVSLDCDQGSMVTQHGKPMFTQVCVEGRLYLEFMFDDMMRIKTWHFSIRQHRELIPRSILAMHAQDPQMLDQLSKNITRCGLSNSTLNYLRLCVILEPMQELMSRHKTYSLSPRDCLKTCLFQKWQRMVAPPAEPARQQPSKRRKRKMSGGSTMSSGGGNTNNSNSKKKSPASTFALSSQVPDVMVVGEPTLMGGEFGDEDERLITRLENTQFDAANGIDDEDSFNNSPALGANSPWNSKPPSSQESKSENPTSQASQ

| Binder | binding result [1] | binding result [2] |
| --- | --- | --- |
| B1 | binds | – |
| B2 | – | binds |
